# T1: full-length KIF5B-GFP with C-terminal Strep-tag (human, UniProt P33176 1-963)
# T1 sequence (looked up): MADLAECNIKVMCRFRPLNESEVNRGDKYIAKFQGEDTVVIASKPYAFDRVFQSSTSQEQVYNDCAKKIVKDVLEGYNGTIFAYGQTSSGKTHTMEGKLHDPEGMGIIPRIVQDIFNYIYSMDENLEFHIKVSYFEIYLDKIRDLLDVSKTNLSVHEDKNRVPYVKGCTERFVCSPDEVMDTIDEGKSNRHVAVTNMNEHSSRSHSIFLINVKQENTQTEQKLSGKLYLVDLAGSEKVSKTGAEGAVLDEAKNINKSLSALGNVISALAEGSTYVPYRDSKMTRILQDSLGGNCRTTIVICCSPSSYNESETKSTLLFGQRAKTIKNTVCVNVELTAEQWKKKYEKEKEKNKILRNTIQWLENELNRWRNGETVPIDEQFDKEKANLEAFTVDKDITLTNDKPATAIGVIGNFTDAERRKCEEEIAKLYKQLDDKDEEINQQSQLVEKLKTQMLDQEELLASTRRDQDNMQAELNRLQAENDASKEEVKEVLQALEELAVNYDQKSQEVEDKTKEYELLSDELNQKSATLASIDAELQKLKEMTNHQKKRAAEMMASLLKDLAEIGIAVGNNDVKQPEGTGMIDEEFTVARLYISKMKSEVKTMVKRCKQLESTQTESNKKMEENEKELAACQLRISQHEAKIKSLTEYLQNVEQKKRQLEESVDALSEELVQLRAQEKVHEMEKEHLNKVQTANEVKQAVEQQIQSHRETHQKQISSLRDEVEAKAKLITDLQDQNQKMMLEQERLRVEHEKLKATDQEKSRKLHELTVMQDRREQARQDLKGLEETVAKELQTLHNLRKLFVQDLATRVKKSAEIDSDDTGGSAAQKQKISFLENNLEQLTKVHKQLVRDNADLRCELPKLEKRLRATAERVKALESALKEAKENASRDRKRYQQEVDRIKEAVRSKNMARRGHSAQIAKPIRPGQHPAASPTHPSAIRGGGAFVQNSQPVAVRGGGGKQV
# B1: K560-GFP with C-terminal Strep-tag, purified (domain or fragment, human, UniProt P33176 1-560, looked up)
# chain: MADLAECNIKVMCRFRPLNESEVNRGDKYIAKFQGEDTVVIASKPYAFDRVFQSSTSQEQVYNDCAKKIVKDVLEGYNGTIFAYGQTSSGKTHTMEGKLHDPEGMGIIPRIVQDIFNYIYSMDENLEFHIKVSYFEIYLDKIRDLLDVSKTNLSVHEDKNRVPYVKGCTERFVCSPDEVMDTIDEGKSNRHVAVTNMNEHSSRSHSIFLINVKQENTQTEQKLSGKLYLVDLAGSEKVSKTGAEGAVLDEAKNINKSLSALGNVISALAEGSTYVPYRDSKMTRILQDSLGGNCRTTIVICCSPSSYNESETKSTLLFGQRAKTIKNTVCVNVELTAEQWKKKYEKEKEKNKILRNTIQWLENELNRWRNGETVPIDEQFDKEKANLEAFTVDKDITLTNDKPATAIGVIGNFTDAERRKCEEEIAKLYKQLDDKDEEINQQSQLVEKLKTQMLDQEELLASTRRDQDNMQAELNRLQAENDASKEEVKEVLQALEELAVNYDQKSQEVEDKTKEYELLSDELNQKSATLASIDAELQKLKEMTNHQKKRAAEMMASLLK
# notes: kinesin-1 heavy chain KIF5B, human, residues 1-560; pTT5 vector; also called KIF5B-560; source: HEK293T, transfected, purified (Strep(II)-streptactin, high-salt wash); not shown: GFP, C-terminal, kept
# Assays:
# [1] = molecular target: B1; assay: cell-based or functional assay
# [2] = molecular target: T1, full-length KIF5B-GFP with C-terminal …; assay: cell-based or functional assay
# [3] = molecular target: the molecule itself; assay: SEC-MALS; Superdex 200 10/300, 10 mM Tris HCl pH 7.5, 150 mM NaCl, 20°C; 30 µl of protein at 5 mg/ml injected
# [4] = molecular target: the molecule itself; assay: single-molecule fluorescence intensity analysis (TIRF); intensity of GFP-tagged kinesins moving on MTs compared with monomeric GFP, with or without MAP7 proteins; 30°C
binder,measurement,setting,value
"Alexa Fluor 647–labeled SNAP-tag-MAP7D3, full length (natural protein, UniProt Q8IWC1 1-876, looked up, Alexa Fluor 647 on the SNAP-tag) MMADGAAAGAGGSPSLRELRARMVAAANEIAKERRKQDVVNRVATHSSNIRSTFKPVIDGSMLKNDIKQRLARERREEKRRQQDANKETQLLEKERKTKLQYEKQMEERQRKLKERKEKEEQRRIAAEEKRHQKDEAQKEKFTAILYRTLERRRLADDYQQKRWSWGGSAMANSESKTANKRSASTEKLEQGTSALIRQMPLSSAGLQNSVAKRKTDKERSSSLNRRDSNLHSSTDKEQAERKPRVTGVTNYVMQYVTVPLRKCTSDELRAVMFPMSTMKIPPQTKVEESPLEKVETPPKASVDAPPQVNVEVFCNTSMEASPKAGVGMAPEVSTDSFPVVSVDVSPVVSTYDSEMSMDASPELSIEALPKVDLETVPKVSIVASPEASLEAPPEVSLEALPEVSVEAAPEGSLEAPPKGSAEVAPKESVKGSPKESMEASPEAMVKASPKTSLEASMEASPKAKARDAPKKSEMDKQALIPIAKKRLSSYTECYKWSSSPENACGLPSPISTNRQIQKNCPPSPLPLISKQSPQTSFPYKIMPIQHTLSVQSASSTVKKKKETVSKTTNRCEALSQRHMIYEESGNKSTAGIMNAEAATKILTELRRLAREQREKEEEERQREEMQQRVIKKSKDMAKEAVGGQAEDHLKLKDGQQQNETKKKKGWLDQEDQEAPLQKGDAKIKAQEEADKRKKEHERIMLQNLQERLERKKRIEEIMKRTRKTDVNASKVTETSSHDIYEEAEADNEESDKDSLNEMFPSAILNGTGSPTKFKMPFNNAKKMTHKLVFLEDGTSQVRKEPKTYFNGDLKNFRQKSMKDTSIQEVVSRPSSKRMTSHTTKTRKADETNTTSRSSAQTKSEGFHDILPKSSDTFRQ","landing frequency of K560-GFP on MAP-decorated dynamic MTs in vitro, increasing MAP concentrations, against K560 alone",[1],≤ 23.6 fold
same,processivity (run length) of K560-GFP on dynamic MTs in vitro,[1],2 fold
same,"events of full-length KIF5B-GFP on dynamic MTs in vitro (short binding events and landing followed by processive movement), with MAP against kinesin alone",[2],≥ 60 fold
same,"run length of full-length KIF5B-GFP on dynamic MTs in vitro, with MAP against kinesin alone",[2],~1.6 fold
KIF5B fragment (minimal binding construct for SEC-MALS and ITC) (domain or fragment) CEEEIAKLYKQLDDKDEEINQQSQLVEKLKTQMLDQEELLASTRRDQDNMQAELNRLQAENDASKEEVKEVLQALEELAVNYDQKSQEVEDKTKEYELLSDEL,stoichiometry N,[3],2
B1,stoichiometry N,[4],2
"K370-GFP with C-terminal Strep-tag, purified (domain or fragment, kinesin-1 heavy chain KIF5B, human, residues 1-370; pEGFP-N1 vector; also called KIF5B 1–370; source: HEK293T, transfected, purified (Strep(II)-streptactin); not shown: GFP, C-terminal, kept) not shown",stoichiometry N,[4],2
